Measurements as given in US20260022186A1.

T1: murine NT5E expressed on 4T1 cells (murine) (UniProt Q61503)
T1 sequence (looked up): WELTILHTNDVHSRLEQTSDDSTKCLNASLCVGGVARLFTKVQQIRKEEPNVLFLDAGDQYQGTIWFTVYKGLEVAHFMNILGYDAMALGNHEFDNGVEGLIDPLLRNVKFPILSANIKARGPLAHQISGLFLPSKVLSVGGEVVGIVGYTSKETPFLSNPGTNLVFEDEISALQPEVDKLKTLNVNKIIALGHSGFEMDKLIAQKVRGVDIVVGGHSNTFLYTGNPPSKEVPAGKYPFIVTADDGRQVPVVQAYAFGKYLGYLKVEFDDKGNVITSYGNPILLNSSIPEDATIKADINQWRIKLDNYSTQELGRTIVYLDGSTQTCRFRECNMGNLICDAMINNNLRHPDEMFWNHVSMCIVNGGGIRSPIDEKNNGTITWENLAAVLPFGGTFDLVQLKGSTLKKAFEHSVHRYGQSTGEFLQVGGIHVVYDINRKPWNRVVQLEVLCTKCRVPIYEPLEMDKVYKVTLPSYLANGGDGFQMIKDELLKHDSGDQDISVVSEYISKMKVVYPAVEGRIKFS

T2: human NT5E expressed on MDA-MB-231 cells (human) (UniProt P21589)
T2 sequence (looked up): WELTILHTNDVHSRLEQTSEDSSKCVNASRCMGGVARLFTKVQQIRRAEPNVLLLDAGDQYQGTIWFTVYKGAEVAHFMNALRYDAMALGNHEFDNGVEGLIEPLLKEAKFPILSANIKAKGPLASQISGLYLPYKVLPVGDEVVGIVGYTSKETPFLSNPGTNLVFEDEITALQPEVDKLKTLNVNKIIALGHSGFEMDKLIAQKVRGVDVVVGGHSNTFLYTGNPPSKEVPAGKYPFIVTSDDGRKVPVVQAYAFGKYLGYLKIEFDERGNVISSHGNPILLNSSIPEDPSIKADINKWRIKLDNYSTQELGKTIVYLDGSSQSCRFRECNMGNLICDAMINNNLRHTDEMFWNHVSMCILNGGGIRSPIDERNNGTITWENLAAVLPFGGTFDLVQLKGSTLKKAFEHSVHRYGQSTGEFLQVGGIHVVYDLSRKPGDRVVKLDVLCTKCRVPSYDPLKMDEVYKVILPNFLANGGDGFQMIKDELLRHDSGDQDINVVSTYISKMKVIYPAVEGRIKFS


Key:
[1] = molecular target: T1, murine NT5E expressed on 4T1 cells (murine); assay: cell-based or functional assay
[2] = molecular target: T2, human NT5E expressed on MDA-MB-231 cells (human); assay: cell-based or functional assay

IC50 of inhibition of NT5E activity on 4T1 cells, ATP [1] [nM] | IC50 of inhibition of NT5E activity on MDA-MB-231 cells, ATP [2] [nM] | IC50 of inhibition of NT5E activity on MDA-MB-231 cells, no ATP [2] [nM] | Binder
12.7 | 2.5 | 6.9 | 1789 AM39 IgG (antibody, V domains shown) VH: EVQLVESGGGLVQPGGSLRLSCAASGFNVSYSSIHWVRQAPGKGLEWVASIRGAGSDTRYADSVKGRFTISADTSKNTAYLQMNSLRAEDTAVYYCARNYWGWYPFYYFAFDYWGQGTLVTVSS VL: DIQMTQSPSSLSASVGDRVTITCRASQSVSSAVAWYQQKPGKAPKLLIYSASSLYSGVPSRFSGSRSGTDFTLTISSLQPEDFATYYCQQGWDYPITFGQGTKVEIKR
9.1 | 2.3 | 5.6 | 1789 AM32 IgG (antibody, V domains shown) VH: EVQLVESGGGLVQPGGSLRLSCAASGFNVSYSSIHWVRQAPGKGLEWVARIRGNEGDTYYADSVKGRFTISADTSKNTAYLQMNSLRAEDTAVYYCARNYWGWYPFYYFAFDYWGQGTLVTVSS VL: DIQMTQSPSSLSASVGDRVTITCRASQSVSSAVAWYQQKPGKAPKLLIYSASSLYSGVPSRFSGSRSGTDFTLTISSLQPEDFATYYCQQGWDYPITFGQGTKVEIKR
8.8 | 1.9 | 5.4 | 1789 AM42 IgG (antibody, V domains shown) VH: EVQLVESGGGLVQPGGSLRLSCAASGFNVSYSSIHWVRQAPGKGLEWVAKIRGGHQDTHYADSVKGRFTISADTSKNTAYLQMNSLRAEDTAVYYCARNYWGWYPFYYFAFDYWGQGTLVTVSS VL: DIQMTQSPSSLSASVGDRVTITCRASQSVSSAVAWYQQKPGKAPKLLIYSASSLYSGVPSRFSGSRSGTDFTLTISSLQPEDFATYYCQQGWDYPITFGQGTKVEIKR
